The target in assay [1] is T1, human Sclerostin (human, UniProt Q9BQB4 24-213).
T1 sequence: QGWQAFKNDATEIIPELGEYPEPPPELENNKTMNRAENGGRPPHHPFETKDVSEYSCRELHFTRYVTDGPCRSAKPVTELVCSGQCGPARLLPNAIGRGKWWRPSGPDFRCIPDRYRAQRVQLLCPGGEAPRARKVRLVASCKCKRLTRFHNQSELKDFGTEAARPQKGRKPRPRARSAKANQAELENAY
Description: cell-based or functional assay.

Assay [2] deals with T1, human Sclerostin. Put plainly: BLI (Gator), antibody on anti-hFc biosensor, Sclerostin as analyte, 1:1 global fit. As to the method: (§1) The binding affinity of humanized anti-Sclerostin antibodies to human and cynomolgus monkey Sclerostin were determined with bio-layer interferometry using a Gator instrument (Probe Life). Antibodies were immobilized on an anti-hFc biosensor, using a […]. Serial dilutions of human Sclerostin and cynomolgus monkey Sclerostin from 4 μg/ml by two folds in kinetics buffer (PBS, pH 7.4, 0.05% Tween-20, 0.2% BSA, 10 μM biotin) were used as the analytes. Affinity (KD) and kinetic parameters (Kₒₙ and Koff) were calculated from a global fit (1:1) of the data using the Gator software.

For assay [3], the target named is T2, cynomolgus monkey Sclerostin (cynomolgus monkey, UniProt Q9BG78 24-213 (Chlorocebus aethiops entry)).
T2 chain: T1 sequence with E26D, P70Q, E129A, T161P, S178G
Described as above. As to the method:
as §1

Assay [4] concerns the target T3, human DKK1 (human, UniProt O94907 32-266).
T3 construct: Analyte in BLI and the protein added in the reporter assay; also called hDKK1; Dickkopf-1
T3 sequence (looked up): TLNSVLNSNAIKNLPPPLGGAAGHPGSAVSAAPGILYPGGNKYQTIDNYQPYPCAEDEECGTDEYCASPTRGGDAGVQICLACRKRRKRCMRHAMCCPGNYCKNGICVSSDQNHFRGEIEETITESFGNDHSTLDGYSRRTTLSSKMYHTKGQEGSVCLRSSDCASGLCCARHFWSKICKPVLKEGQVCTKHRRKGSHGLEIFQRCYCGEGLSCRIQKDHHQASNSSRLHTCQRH
Description: BLI (Gator), hAb-2 on anti-hFc probe already holding hSclerostin, hDKK1 as second analyte. As to the method:
The bsAb constructs (5 μg/ml) were captured to the anti-hFc HFC probe, then sequentially adding hSclerostin (2 μg/ml) and hDKK1 (2 μg/ml) in kinetics buffer (PBS, pH 7.4, 0.05% Tween-20, 0.2% BSA).

Assay [5] deals with T1, human Sclerostin. Put plainly: cell-based or functional assay. This is another data set of the same source.
For assay [6], the target named is T3, human DKK1. Put plainly: cell-based or functional assay.
Assay [7] has as its target T1, human Sclerostin. Put plainly: BLI (Gator), antibody on anti-hFc biosensor, antigen as analyte, 1:1 global fit. The method, then:
(§2) Binding kinetics and affinities of anti-Sclerostin×anti-DKK1 and anti-Sclerostin×anti-RANKL bispecific antibodies were measured with Gator (Probe Life) bio-layer interferometry (BLI). Antibodies were immobilized on an anti-hFc biosensor, using a 5 μg/ml solution. Serial dilutions of sclerostin (from 1 μg/ml), DKK1 (from 2 μg/ml), or RANKL (from 4 μg/ml) by two folds in kinetics buffer (PBS, pH 7.4, 0.05% Tween-20, 0.2% BSA) were used as the analytes. Affinity (KD) and kinetic parameters (Kₒₙ and Koff) were calculated from a global fit (1:1) of the data using the Gator software.

The target of assay [8] is T3, human DKK1. The assay is described as above. The method, then:
as §2

Assay [9] concerns the target T1, human Sclerostin. Put plainly: BLI (Gator), antibody on anti-hFc biosensor, antigen as analyte; koff at LOD, KD estimated. As to the method: as §2
For assay [10], the target named is T3, human DKK1. The description is as above. As to the method:
as §2

These results are taken from patent US20230312755A1 (ANGITIA, published 2023).

For orientation: Kd means the constant that tells how readily two partners part at equilibrium. By koff is commonly meant a measure of how fast the partners let go of each other. A word on the kon: it is a measure of how fast the partners come together.

Positions count from the first letter of the chain named.

B1: hAb-2 (antibody, V domains shown)
VH: EVQLVQSGAEVKKPGASVKVSCKASGYTFTDYEIHWVRQAPGKGLEWMGAIDPETGGTAYNQKFKGRVTMTTDTSTSTAYMELRSLRSDDTAVYYCYSYDYVTYWGQGTTVTVSS
VL: DIQMTQSPSSLSASVGDRVTITCRSSQSLLYSDGRTYLNWYQQKPGKSPKRLIYLVSKLDSGVPDRFSGSGSGTDFTLTISSLQPEDFATYYCWQGTHLPHTFGGGTKVEIK
notes: Humanized 93B1B7; also called humanized anti-Sclerostin antibody hAb-2
In the case of B1, the “EC50, Sclerostin-neutralisation activity in HEK293/TCF/LEF/Wnt1 cells (luciferase reporter)” value in assay [1] was found to be 14.9 nM. In [2], this molecule gave a Kd of 0.24 nM, a koff of 0.0002 s⁻¹ and a kon of 780000 M⁻¹ s⁻¹. In assay [3], the Kd was determined as 0.055 nM, the koff was found to be 8.06e-05 s⁻¹ and the kon came out at 1.54e+06 M⁻¹ s⁻¹. Besides, the binding result in assay [4] is recorded as “no binding (tested: 2 µg/ml)”.

B2: BAP0037 (bispecific antibody, human IgG4 S228P, kappa)
heavy: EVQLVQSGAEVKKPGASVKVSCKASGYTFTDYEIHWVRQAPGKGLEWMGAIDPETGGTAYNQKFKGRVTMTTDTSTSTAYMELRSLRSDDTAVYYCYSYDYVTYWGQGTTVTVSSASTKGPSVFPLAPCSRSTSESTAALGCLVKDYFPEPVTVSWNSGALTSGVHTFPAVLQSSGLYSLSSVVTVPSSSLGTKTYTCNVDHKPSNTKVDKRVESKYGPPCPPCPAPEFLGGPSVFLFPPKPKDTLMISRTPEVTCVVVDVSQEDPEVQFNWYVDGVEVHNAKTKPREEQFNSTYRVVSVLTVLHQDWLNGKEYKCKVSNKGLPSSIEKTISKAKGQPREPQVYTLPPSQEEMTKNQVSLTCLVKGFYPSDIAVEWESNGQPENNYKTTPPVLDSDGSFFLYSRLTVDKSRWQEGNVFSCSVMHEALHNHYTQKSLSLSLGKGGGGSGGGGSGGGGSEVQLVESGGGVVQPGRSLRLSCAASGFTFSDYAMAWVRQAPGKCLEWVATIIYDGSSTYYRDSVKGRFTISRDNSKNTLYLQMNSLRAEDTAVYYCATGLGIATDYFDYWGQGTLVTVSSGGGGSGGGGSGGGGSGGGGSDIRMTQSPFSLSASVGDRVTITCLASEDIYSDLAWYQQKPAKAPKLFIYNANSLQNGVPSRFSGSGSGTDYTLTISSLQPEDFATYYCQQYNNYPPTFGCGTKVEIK
light: DIQMTQSPSSLSASVGDRVTITCRSSQSLLYSDGRTYLNWYQQKPGKSPKRLIYLVSKLDSGVPDRFSGSGSGTDFTLTISSLQPEDFATYYCWQGTHLPHTFGGGTKVEIKRTVAAPSVFIFPPSDEQLKSGTASVVCLLNNFYPREAKVQWKVDNALQSGNSQESVTEQDSKDSTYSLSSTLTLSKADYEKHKVYACEVTHQGLSSPVTKSFNRGEC
notes: Anti-DKK1 scFv (VH-VL) fused to the C-terminus of the heavy chains of the anti-Sclerostin full length antibody (hAb-2)
Take B2: in [5], the “EC50, Sclerostin neutralization activity in HEK293/TCF/LEF/Wnt1 reporter gene assay” value is 23.6 nM. The “EC50, DKK1 neutralization activity in HEK293/TCF/LEF/Wnt1 reporter gene assay” value in [6] was found to be 24.1 nM. In assay [7], this molecule returned a kon of 1.88e+06 M⁻¹ s⁻¹. In assay [8], the Kd is 1.01 nM, the koff stood at 0.000301 s⁻¹ and the kon was 297000 M⁻¹ s⁻¹. In addition, the Kd in assay [9] was about 0.01 nM.

B3: BAP0061 (bispecific antibody, human IgG4 S228P, kappa)
heavy 1: EVQLVQSGAEVKKPGASVKVSCKASGYTFTDYEIHWVRQAPGKGLEWMGAIDPETGGTAYNQKFKGRVTMTTDTSTSTAYMELRSLRSDDTAVYYCYSYDYVTYWGQGTTVTVSSASTKGPSVFPLAPCSRSTSESTAALGCLVKDYFPEPVTVSWNSGALTSGVHTFPAVLQSSGLYSLSSVVTVPSSSLGTKTYTCNVDHKPSNTKVDKRVESKYGPPCPPCPAPEFLGGPSVFLFPPKPKDTLMISRTPEVTCVVVDVSQEDPEVQFNWYVDGVEVHNAKTKPREEQFNSTYRVVSVLTVLHQDWLNGKEYKCKVSNKGLPSSIEKTISKAKGQPREPQVYTLPPSQEEMTKNQVSLSCAVKGFYPSDIAVEWESNGQPENNYKTTPPVLDSDGSFFLVSRLTVDKSRWQEGNVFSCSVMHEALHNRFTQKSLSLSLGK
light 1: B2 light
heavy 2: not shown
light 2: DIRMTQSPFSLSASVGDRVTITCLASEDIYSDLAWYQQKPAKAPKLFIYNANSLQNGVPSRFSGSGSGTDYTLTISSLQPEDFATYYCQQYNNYPPTFGGGTKVEIKRTVAAPSVFICPPSDEQLKSGTASVVCLLNNFYPREAKVQWKVDNALQSGNSQESVTEQDSKDSTYSLSSTLTLSKADYEKHKVYACEVTHQGLSSPVTKSFNRGES
notes: Asymmetric knob-into-hole full length antibody: first Fab (hAb-2) recognizes Sclerostin, second Fab (11H10) recognizes DKK1
As to B3, in [5], the “EC50, Sclerostin neutralization activity in HEK293/TCF/LEF/Wnt1 reporter gene assay” value is 63.8 nM. For the same molecule, the “EC50, DKK1 neutralization activity in HEK293/TCF/LEF/Wnt1 reporter gene assay” value in assay [6] came to 41.4 nM. Also, the kon in assay [7] turned out to be 2.62e+06 M⁻¹ s⁻¹; in assay [8], 330000 M⁻¹ s⁻¹. Further, the Kd in assay [9] and in assay [10] was about 0.01 nM each time.

B4: BAP0063 (bispecific antibody, human IgG4 S228P, kappa)
heavy 1: B3 heavy 1
light 1: B2 light
heavy 2: not shown
light 2: B3 light 2 with C118F, Q160C
notes: as for B3
As for B4, in assay [5], the “EC50, Sclerostin neutralization activity in HEK293/TCF/LEF/Wnt1 reporter gene assay” value was 65.4 nM. Besides, in assay [6], the “EC50, DKK1 neutralization activity in HEK293/TCF/LEF/Wnt1 reporter gene assay” value is 44.7 nM. Further, the kon is 2.59e+06 M⁻¹ s⁻¹ in [7] and 129000 M⁻¹ s⁻¹ in assay [8]. Moreover, the Kd in assay [9] and in assay [10] was about 0.01 nM throughout.
